Data set [1] deals with T1, UBL domain of UBL4A (UBL4A_UBL), residues 1-74 (human, UniProt P11441 1-74, RED-NHS (amine reactive) dye, in the MST experiment only).
T1 sequence (looked up): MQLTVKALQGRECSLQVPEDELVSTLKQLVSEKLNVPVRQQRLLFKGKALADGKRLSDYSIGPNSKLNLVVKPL
Put plainly: MST; labelled UBL at 0.4 µM, unlabelled SGTA_NT 400 µM to 24.4 nM; 100 mM MES pH 6.0, 150 mM KCl, 0.5 mM TCEP; 25 °C; Monolith NT.115. Conditions: both partners purified.

Data set [2] has as its target T1, UBL domain of UBL4A (UBL4A_UBL), …. Put plainly: ITC; 30 °C, 100 mM MES pH 6.0, 200 mM KCl; 20 injections of 2 µL SGTA_NT (dimer, 500 µM) into UBL at 50 µM (monomer); independent binding sites model. The conditions noted are these: both partners purified. Background: In ITC the heat of successive injections is recorded.
Data set [3] concerns the molecule itself. Kind of data set: NMR solution structure; SGTA_NT dimer; mixed isotope labelling, filtered NOESY for intermolecular NOEs; 100 mM MES pH 6.0, 150 mM KCl, 35 °C; ARIA2.1.

For orientation: Kd means the free concentration of one partner at which half of the binding sites on the other are occupied at equilibrium, for simple one-to-one binding. A high value points to weaker binding. By stoichiometry N is commonly meant a count of units in the complex or per binding partner.

B1: SGTA N-terminal dimerisation domain (SGTA_NT), residues 1-69 (domain or fragment, UniProt O43765 1-69, looked up)
chain: MDNKKRLAYAIIQFLHDQLRHGGLSSDAQESLEVAIQCLETAFGVTVEDSDLALPQTLPEIFEAAATGK
On to B1, for which, in data set [1], the affinity, expressed as Kd, was 3.7 µM and the “stoichiometry N” value is 1 SGTA dimer: UBL monomer. Also, in data set [2], the Kd was determined as 3 µM, the dH was 5900 ± 110 and the “stoichiometry N” value came to 0.949 ± 0.013. For the same molecule, the “stoichiometry N” value in data set [3] came out at 2.

The values are drawn from PMC4240585, “Solution Structure of the SGTA Dimerisation Domain and Investigation of Its Interactions with the Ubiquitin-Like Domains of BAG6 and UBL4A” (PLoS ONE, 2014).
